Here are results for 15 molecules from US20080058636A1, “METHODS OF MYOCARDIAL IMAGING” (Epix Pharmaceuticals, Inc., priority 2005, published 2008).

Bridge positions count the residues as written; N and C are the ends. Square brackets hold non-standard residues; d marks the D form. Ends that are not written are not given here.

First the molecules themselves.
B1: SEQ ID NO: 179 (peptide)
chain: DWTCSADEYTWHCNYE
B2: SEQ ID NO: 176 (peptide)
chain: GQWTCSGDEYTWHC[dN]YE
modifications: disulfide 5-14 (inferred); not fully specified (C-terminus); printed as Q W T C S G D E Y T W H C n Y E
B3: SEQ ID NO: 177 (peptide)
chain: GQWTCSGDEYTWHCN[dY]E
modifications: disulfide 5-14 (inferred); not fully specified (C-terminus); printed as Q W T C S G D E Y T W H C N y E
B4: SEQ ID NO: 173 (peptide)
chain: GQWTCSGDEYT[dW]HCNYE
modifications: disulfide 5-14 (inferred); not fully specified (C-terminus); printed as Q W T C S G D E Y T w H C N Y E
B5: SEQ ID NO: 170 (peptide)
chain: GQWTCSGD[dE]YTWHCNYE
modifications: disulfide 5-14 (inferred)
B6: SEQ ID NO: 172 (peptide)
chain: GQWTCSGDEY[dT]WHCNYE
modifications: disulfide 5-14 (inferred); not fully specified (C-terminus); printed as Q W T C S G D E Y t W H C N Y E
B7: SEQ ID NO: 175 (peptide)
chain: GQWTCSGDEYTWH[dC]NYE
modifications: disulfide 5-14 (inferred); not fully specified (C-terminus); printed as Q W T C S G D E Y T W H c N Y E
B8: SEQ ID NO: 180 (peptide)
chain: DWTCSSDEYTWHCNYE
B9: SEQ ID NO: 171 (peptide)
chain: GQWTCSGDE[dY]TWHCNYE
modifications: disulfide 5-14 (inferred); not fully specified (C-terminus); printed as Q W T C S G D E y T W H C N Y E
B10: SEQ ID NO: 178 (peptide)
chain: GQWTCSGDEYTWHCNY[dE]
modifications: disulfide 5-14 (inferred); not fully specified (C-terminus); printed as Q W T C S G D E Y T W H C N Y e
B11: SEQ ID NO: 183 (peptide)
chain: DWTCSLDEYTWHCNYE
B12: SEQ ID NO: 181 (peptide)
chain: DWTCSRDEYTWHCNYE
B13: SEQ ID NO: 169 (peptide)
chain: GQWTCSG[dD]EYTWHCNYE
modifications: disulfide 5-14 (inferred)
B14: SEQ ID NO: 182 (peptide)
chain: DWTCSYDEYTWHCNYE
B15: SEQ ID NO: 174 (peptide)
chain: GQWTCSGDEYTW[dH]CNYE
modifications: disulfide 5-14 (inferred); not fully specified (C-terminus); printed as Q W T C S G D E Y T W h C N Y E

The target in the first experiment is rat collagen (acid soluble, type I, rat tail, Upstate 08-115) (rat) (UniProt P02454). Nature of the experiment: dried collagen assay.
Sequence of rat collagen (acid soluble, type I, rat tail, Upstate 08-115) (rat) (P02454 152-1207, chain 1 of 2): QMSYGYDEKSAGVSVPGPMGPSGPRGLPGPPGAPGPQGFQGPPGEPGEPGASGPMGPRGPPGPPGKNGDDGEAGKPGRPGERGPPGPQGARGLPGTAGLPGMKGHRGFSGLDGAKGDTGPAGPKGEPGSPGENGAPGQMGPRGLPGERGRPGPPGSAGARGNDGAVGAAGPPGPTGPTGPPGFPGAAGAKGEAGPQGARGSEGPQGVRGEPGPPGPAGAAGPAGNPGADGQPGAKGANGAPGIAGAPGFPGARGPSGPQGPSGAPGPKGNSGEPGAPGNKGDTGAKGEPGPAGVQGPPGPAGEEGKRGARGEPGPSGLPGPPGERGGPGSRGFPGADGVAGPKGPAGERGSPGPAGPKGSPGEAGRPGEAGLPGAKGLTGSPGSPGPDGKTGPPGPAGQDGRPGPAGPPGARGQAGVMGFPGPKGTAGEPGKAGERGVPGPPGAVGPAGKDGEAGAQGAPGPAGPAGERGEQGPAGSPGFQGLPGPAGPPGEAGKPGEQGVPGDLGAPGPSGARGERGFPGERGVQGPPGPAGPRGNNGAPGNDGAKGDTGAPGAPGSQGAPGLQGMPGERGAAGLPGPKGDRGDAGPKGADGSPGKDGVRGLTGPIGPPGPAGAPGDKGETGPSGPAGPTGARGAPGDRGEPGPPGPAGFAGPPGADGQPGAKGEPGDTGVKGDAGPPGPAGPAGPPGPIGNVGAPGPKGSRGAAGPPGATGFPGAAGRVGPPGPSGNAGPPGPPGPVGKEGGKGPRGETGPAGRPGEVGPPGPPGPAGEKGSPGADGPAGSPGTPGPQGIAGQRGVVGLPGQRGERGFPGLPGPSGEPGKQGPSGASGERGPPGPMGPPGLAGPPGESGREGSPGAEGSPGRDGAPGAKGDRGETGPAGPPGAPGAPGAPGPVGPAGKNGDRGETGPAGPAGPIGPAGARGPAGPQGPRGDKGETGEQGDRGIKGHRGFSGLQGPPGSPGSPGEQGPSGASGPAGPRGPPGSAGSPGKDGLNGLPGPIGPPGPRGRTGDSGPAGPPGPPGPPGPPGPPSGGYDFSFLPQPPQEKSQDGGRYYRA
Sequence of rat collagen (acid soluble, type I, rat tail, Upstate 08-115) (rat) (P02466 86-1125, chain 2 of 2, further chain): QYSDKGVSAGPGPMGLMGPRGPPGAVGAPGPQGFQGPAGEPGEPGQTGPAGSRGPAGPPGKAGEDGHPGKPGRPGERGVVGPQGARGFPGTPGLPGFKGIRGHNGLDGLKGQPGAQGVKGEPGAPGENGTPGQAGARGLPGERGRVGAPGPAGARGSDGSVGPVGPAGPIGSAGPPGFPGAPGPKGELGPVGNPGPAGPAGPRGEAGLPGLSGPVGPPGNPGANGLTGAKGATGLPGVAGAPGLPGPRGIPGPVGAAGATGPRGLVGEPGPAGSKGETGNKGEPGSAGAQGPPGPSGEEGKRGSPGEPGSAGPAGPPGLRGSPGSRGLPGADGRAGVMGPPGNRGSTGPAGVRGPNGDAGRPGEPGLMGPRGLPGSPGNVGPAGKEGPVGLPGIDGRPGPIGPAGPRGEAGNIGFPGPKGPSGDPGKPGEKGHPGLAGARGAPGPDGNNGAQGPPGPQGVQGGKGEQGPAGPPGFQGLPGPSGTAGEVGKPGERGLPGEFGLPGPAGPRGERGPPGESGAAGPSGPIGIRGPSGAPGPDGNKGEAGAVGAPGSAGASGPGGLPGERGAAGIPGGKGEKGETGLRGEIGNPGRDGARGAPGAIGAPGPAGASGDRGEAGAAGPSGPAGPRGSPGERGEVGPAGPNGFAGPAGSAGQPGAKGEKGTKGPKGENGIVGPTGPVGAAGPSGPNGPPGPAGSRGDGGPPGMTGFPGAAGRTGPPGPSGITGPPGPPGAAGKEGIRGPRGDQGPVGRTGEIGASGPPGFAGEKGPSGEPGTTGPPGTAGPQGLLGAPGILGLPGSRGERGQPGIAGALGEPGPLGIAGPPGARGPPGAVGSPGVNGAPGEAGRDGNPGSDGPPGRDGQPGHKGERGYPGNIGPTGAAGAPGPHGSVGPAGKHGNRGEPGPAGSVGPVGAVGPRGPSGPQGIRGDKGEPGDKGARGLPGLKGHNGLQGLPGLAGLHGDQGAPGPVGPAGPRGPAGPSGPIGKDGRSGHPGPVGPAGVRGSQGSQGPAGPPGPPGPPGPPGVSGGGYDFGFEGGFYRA
Regarding B1, the % Collagen Binding turned out to be 75%.

B2: the % Collagen Binding worked out at 2%.

On to B3, for which the % Collagen Binding is 27%.

As for B4, the % Collagen Binding came out at 4%.

In turn, B5 returned a % Collagen Binding of 35%.

Molecule B6 displayed a % Collagen Binding of 8%.

With B7, the % Collagen Binding is 2%.

With B8, the % Collagen Binding stood at 72%.

B9 registered a % Collagen Binding of 6%.

B10: the % Collagen Binding amounted to 87%.

Regarding B11, the % Collagen Binding came to 63%.

The molecule B12 yielded a % Collagen Binding of 86%.

In the case of B13, the % Collagen Binding was 4%.

On to B14, for which the % Collagen Binding is 86%.

On to B15, for which the % Collagen Binding is 0%.

For the next experiment, the target named is human collagen type I (acid soluble, extracted from placenta, Sigma C7774) (human) (UniProt P02452). Nature of the experiment: dried collagen assay.
Sequence of human collagen type I (acid soluble, extracted from placenta, Sigma C7774) (human) (P02452 162-1218 limits assumed, chain 1 of 2): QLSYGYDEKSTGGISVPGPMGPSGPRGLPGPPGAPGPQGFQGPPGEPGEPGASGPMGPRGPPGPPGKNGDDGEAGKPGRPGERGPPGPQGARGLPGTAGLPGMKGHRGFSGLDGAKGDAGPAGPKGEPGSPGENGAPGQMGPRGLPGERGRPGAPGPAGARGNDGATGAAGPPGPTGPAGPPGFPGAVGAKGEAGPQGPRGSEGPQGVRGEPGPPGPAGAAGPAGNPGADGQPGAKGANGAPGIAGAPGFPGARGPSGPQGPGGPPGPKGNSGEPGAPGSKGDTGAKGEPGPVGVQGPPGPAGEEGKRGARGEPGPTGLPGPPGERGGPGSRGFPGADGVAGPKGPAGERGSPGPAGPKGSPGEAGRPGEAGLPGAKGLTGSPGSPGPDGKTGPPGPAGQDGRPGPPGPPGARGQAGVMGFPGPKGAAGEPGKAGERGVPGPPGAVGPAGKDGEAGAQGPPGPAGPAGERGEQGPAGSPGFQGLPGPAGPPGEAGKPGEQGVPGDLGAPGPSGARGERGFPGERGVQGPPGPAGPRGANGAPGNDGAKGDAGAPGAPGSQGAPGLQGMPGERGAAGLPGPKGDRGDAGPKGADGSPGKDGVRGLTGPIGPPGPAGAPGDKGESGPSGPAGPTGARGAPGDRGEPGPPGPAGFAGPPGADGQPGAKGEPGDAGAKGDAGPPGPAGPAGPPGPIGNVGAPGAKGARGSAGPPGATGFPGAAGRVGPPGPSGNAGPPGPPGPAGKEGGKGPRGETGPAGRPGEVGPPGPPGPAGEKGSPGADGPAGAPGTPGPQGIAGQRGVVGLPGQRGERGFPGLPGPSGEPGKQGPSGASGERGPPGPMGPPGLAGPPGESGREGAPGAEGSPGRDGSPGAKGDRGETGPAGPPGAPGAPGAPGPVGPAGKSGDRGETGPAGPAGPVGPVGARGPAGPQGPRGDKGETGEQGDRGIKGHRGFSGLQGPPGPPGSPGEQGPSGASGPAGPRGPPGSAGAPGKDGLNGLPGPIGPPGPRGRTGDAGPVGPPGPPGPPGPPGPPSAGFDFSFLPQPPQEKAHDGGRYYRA
Sequence of human collagen type I (acid soluble, extracted from placenta, Sigma C7774) (human) (P08123 80-1119 limits assumed, chain 2 of 2, further chain): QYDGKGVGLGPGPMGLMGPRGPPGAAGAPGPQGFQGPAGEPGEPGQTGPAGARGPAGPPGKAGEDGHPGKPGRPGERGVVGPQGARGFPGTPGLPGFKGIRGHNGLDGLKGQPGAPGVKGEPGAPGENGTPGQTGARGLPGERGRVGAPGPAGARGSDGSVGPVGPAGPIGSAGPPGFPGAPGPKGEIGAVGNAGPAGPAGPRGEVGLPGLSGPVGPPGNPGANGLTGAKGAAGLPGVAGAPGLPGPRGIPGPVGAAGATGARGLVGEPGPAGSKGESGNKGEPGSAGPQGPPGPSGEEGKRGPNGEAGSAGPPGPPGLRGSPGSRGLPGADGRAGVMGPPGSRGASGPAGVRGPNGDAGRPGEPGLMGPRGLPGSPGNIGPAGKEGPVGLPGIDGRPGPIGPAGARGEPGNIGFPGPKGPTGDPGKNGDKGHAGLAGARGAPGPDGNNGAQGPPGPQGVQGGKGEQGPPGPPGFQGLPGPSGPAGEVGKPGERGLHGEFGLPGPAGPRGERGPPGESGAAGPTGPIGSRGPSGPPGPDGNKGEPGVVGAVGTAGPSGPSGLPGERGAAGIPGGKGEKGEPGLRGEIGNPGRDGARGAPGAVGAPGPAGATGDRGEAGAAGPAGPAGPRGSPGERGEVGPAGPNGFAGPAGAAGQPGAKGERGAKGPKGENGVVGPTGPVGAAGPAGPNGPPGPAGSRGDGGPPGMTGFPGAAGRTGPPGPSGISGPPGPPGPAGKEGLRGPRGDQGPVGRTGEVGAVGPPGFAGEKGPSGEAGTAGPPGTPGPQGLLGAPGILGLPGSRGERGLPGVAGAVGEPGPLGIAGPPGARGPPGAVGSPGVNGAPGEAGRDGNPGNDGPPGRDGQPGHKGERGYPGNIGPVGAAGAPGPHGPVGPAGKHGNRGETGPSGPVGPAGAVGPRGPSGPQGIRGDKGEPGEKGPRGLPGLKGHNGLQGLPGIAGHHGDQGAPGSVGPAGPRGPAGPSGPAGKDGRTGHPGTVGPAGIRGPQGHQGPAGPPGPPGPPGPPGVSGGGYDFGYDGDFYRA
Consider B1, for which the % Collagen Binding came out at 81%.

The molecule B2 had a % Collagen Binding of 2%.

The molecule B3 came in with a % Collagen Binding of 30%.

In turn, B4 showed a % Collagen Binding of 5%.

As to B5, the % Collagen Binding came out at 49%.

The molecule B6 gave a % Collagen Binding of 9%.

For B7, the % Collagen Binding stood at 2%.

As for B8, the % Collagen Binding was found to be 81%.

With B9, the % Collagen Binding amounted to 13%.

B10: the % Collagen Binding was determined as 90%.

As for B11, the % Collagen Binding was determined as 73%.

B12 came in with a % Collagen Binding of 87%.

B13: the % Collagen Binding was 11%.

Turning to B14, the % Collagen Binding was found to be 89%.

The molecule B15 gave a % Collagen Binding of 5%.
